Assay results published in patent US20020055130.

Biological target: recombinant kinase inactive SEK1 (SEK1 K→M)

| Protein | phosphorylation of SEK1 K→M by immunoprecipitates (in vitro kinase assay) |
| --- | --- |
| HA-tagged full length mouse MEKK1 (196 kDa; plasmid MEKK1.cp4, expressed in HEK293 cells) (protein) MGYPYDVDYASMAAAAGDRASSSGFPGAAAASPEAGGGGGGGGALQGSGAPAAGAAGLLREPGSAGRERADWRRRQLRKVRSVELDQLPEQPLFLAAASPPCPSTSPSPEPADAAAGASRFQPAAGPPPPGAASRCGSHSAELAAARDSGARSPAGAEPPSAAAPSGREMENKETLKGLHKMEDRPEERMIREKLKATCMPAWKHEWLERRNRRGPVVVKPIPIKGDGSEVNNLAAEPQGEGQAGSAAPAPKGRRSPSPGSSPSGRSVKPESPGVRRKRVSPVPFQSGRITPPRRAPSPDGFSPYSPEETSRRVNKVMRARLYLLQQIGPNSFLIGGDSPDNKYRVFIGPQNCSCGRGAFCIHLLFVMLRVFQLEPSDPMLWRKTLKNFEVESLFQKYHSRRSSRIKAPSRNTIQKFVSRMSNSHTLSSSSTSTSSSENSIKDEEEQMCPICLLGMLDEESLTVCEDGCRNKLHHHCMSIWAEECRRNREPLICPLCRSKWRSHDFYSHELSSPVESPASLRAVQQPSSPQQPVAGSQRRNQESSFNLTHFGTQQIPSAYKDLAEPWIQVFGMELVGCLFSRNWNVREMALRRLSHDVSGALLLANGESTGNSGGGSGGSLSAGAASGSSQPSISGDVVEACCSVLSIVCADPVYKVYVAALKTLRAMLVYTPCHSLAERIKLQRLLRPVVDTILVKCADANSRTSQLSISTVLELCKGQAGELAVGREILKAGSIGVGGVDYVLSCILGNQAESNNWQELLGRLCLIDRLLLEFPAEFYPHIVSTDVSQAEPVEIRYKKLLSLLTFALQSIDNSHSMVGKLSRRIYLSSARMVTAVPAVFSKLVTMLNASGSTHFTRMRRRLMAIADEVEIAEVIQLGVEDTVDGHQDSLQAVAPTSCLENSSLEHTVHREKTGKGLSATRLSASSEDISDRLAGVSVGLPSSTTTEQPKPAVQTKGRPHSQCLNSSPLSHAQLMFPAPSAPCSSAPSVPDISKHRPQAFVPCKIPSASPQTQRKFSLQFQRNCSEHRDSDQLSPVFTQSRPPPSSNIHRPKPSRPVPGSTSKLGDATKSSMTLDLGSASRCDDSFGGGGNSGNAVIPSDETVFTPVEDKCRLDVNTELNSSIEDLLEASMPSSDTTVTFKSEVAVLSPEKAENDDTYKDDVNHNQKCKEKMEAEEEEALAIAMAMSASQDALPIVPQLQVENGEDIIIIQQDTPETLPGHTKAKQPYREDAEWLKGQQIGLGAFSSCYQAQDVGTGTLMAVKQVTYVRNTSSEQEEVVEALREEIRMMGHLNHPNIIRMLGATCEKSNYNLFIEWMAGGSVAHLLSKYGAFKESVVINYTEQLLRGLSYLHENQIIHRDVKGANLLIDSTGQRLRIADFGAAARLASKGTGAGEFQGQLLGTIAFMAPEVLRGQQYGRSCDVWSVGCAIIEMACAKPPWNAEKHSNHLALIFKIASATTAPSIPSHLSPGLRDVAVRCLELQPQDRPPSRELLKHPVFRTTW | When the full length MEKK1 protein was immunoprecipitated by the 12CA5 antibody it had measureable autophosphorylation and activity towards SEK1 |
| MEKK1 cleavage fragment C (protein) GHQDSLQAVAPTSCLENSSLEHTVHREKTGKGLSATRLSASSEDISDRLAGVSVGLPSSTTTEQPKPAVQTKGRPHSQCLNSSPLSHAQLMFPAPSAPCSSAPSVPDISKHRPQAFVPCKIPSASPQTQRKFSLQFQRNCSEHRDSDQLSPVFTQSRPPPSSNIHRPKPSRPVPGSTSKLGDATKSSMTLDLGSASRCDDSFGGGGNSGNAVIPSDETVFTPVEDKCRLDVNTELNSSIEDLLEASMPSSDTTVTFKSEVAVLSPEKAENDDTYKDDVNHNQKCKEKMEAEEEEALAIAMAMSASQDALPIVPQLQVENGEDIIIIQQDTPETLPGHTKAKQPYREDAEWLKGQQIGLGAFSSCYQAQDVGTGTLMAVKQVTYVRNTSSEQEEVVEALREEIRMMGHLNHPNIIRMLGATCEKSNYNLFIEWMAGGSVAHLLSKYGAFKESVVINYTEQLLRGLSYLHENQIIHRDVKGANLLIDSTGQRLRIADFGAAARLASKGTGAGEFQGQLLGTIAFMAPEVLRGQQYGRSCDVWSVGCAIIEMACAKPPWNAEKHSNHLALIFKIASATTAPSIPSHLSPGLRDVAVRCLELQPQDRPPSRELLKHPVFRTTW | a stronger SEK1 phosphorylation signal was detected |
